Assays:
[1] = biological target: T1, Z-Arg-Leu-Arg-Gly-Gly (SEQ ID NO: 1)-amino-luciferin
T1 chain: RLRGG

[2] = biological target: ubiquitin-7-amino-4-methylcoumarin, P0CG47
[3] = biological target: ubiquitin-rhodamine110, P0CG47
[4] = biological target: hSUMO2-amino-luciferin, P61956
Sequence of hSUMO2-amino-luciferin, P61956 (P61956 1-93): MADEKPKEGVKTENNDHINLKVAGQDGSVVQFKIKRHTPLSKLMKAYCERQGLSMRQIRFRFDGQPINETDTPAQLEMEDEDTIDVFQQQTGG

Sequence of ubiquitin-7-amino-4-methylcoumarin, P0CG47 (P0CG47 whole entry, looked up): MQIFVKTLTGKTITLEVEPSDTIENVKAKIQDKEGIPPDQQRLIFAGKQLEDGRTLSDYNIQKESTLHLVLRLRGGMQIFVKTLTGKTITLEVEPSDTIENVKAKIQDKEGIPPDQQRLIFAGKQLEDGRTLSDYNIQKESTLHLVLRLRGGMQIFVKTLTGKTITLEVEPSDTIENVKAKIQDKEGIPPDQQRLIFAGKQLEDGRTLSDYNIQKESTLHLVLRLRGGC
Sequence of ubiquitin-rhodamine110, P0CG47 (P0CG47 whole entry, looked up): as above

B1: JosD2 (protein)
chain: MSQAPGAQPSPPTVYHERQRLELCAVHALNNVLQQQLFSQEAADEICKRLAPDSRLNPHRSLLGTGNYDVNVIMAALQGLGLAAVWWDRRRPLSQLALPQVLGLILNLPSPVSLGLLSLPLRRRHWVALRQVDGVYYNLDSKLRAPEALGDEDGVRAFLAAALAQGLCEVLLVVTKEVEEKGSWLRTD
**Q.** B1 was tested. Which Signal to Background, luminescence, DUB 10 nM (Ub(1-76)-aminoluciferin) did it give?
**A.** 760 S/B

**Q.** What about the Signal to Background, luminescence, DUB 10 nM [1] of the same protein?
**A.** 2.1 S/B

**Q.** And the Signal to Background, fluorescence, DUB 10 nM [2]?
**A.** 2.1 S/B

**Q.** What about the Signal to Background, fluorescence, DUB 10 nM [3] of the same protein?
**A.** 8.2 S/B

B2: USP2core (the common catalytic core domain of the two isoforms of USP2, USP2a and USP2b) (protein)
chain: NSKSAQGLAGLRNLGNTCFMNSILQCLSNTRELRDYCLQRLYMRDLHHGSNAHTALVEEFAKLIQTIWTSSPNDVVSPSEFKTQIQRYAPRFVGYNQQDAQEFLRFLLDGLHNEVNRVTLRPKSNPENLDHLPDDEKGRQMWRKYLEREDSRIGDLFVGQLKSSLTCTDCGYCSTVFDPFWDLSLPIAKRGYPEVTLMDCMRLFTKEDVLDGDEKPTCCRCRGRKRCIKKFSIQRFPKILVLHLKRFSESRIRTSKLTTFVNFPLRDLDLREFASENTNHAVYNLYAVSNHSGTTMGGHYTAYCRSPGTGEWHTFNDSSVTPMSSSQVRTSDAYLLFYELASPPSRM
**Q.** B2 was tested. Which “S/B against the S/B for both Ub-AMC and Ub-Rhodamine110, enzyme 0.5 nM” value (Ub(1-76)-aminoluciferin) did it give?
**A.** increased by ~100-fold relative to the S/B for both Ub-AMC and Ub-Rhodamine110

B3: SENP2 (sentrin-specific protease 2) (protein)
chain: DLLELTEDMEKEISNALGHGPQDEILSSAFKLRITRGDIQTLKNYHWLNDEVINFYMNLLVERNKKQGYPALHVFSTFFYPKLKSGGYQAVKRWTKGVNLFEQEIILVPIHRKVHWSLVVIDLRKKCLKYLDSMGQKGHRICEILLQYLQDESKTKRNSDLNLLEWTHHSMKPHEIPQQLNGSDCGMFTCKYADYISRDKPITFTQHQMPLFRKKMVWEILHQQLL
**Q.** Which results are given for B3?
**A.** luminescence signal (S/B), enzyme 200 pM [1]: Z-Arg-Leu-Arg-Gly-Gly (SEQ ID NO: 1)-amino-luciferin also gave signals with SENP2 and SENP6 (200 pM); luminescence signal (S/B), enzyme 200 pM [4]: SENP1, SENP2, and SENP6 (200 pM) on the other hand gave strong signals with hSUMO2-amino-luciferin

B4: AMSH (associated molecule with the SH3 domain of STAM) (protein)
chain: MSDHGDVSLPPEDRVRALSQLGSAVEVNEDIPPRRYFRSGVEIIRMASIYSEEGNIEHAFILYNKYITLFIEKLPKHRDYKSAVIPEKKDTVKKLKEIAFPKAEELKAELLKRYTKEYTEYNEEKKKEAEELARNMAIQQELEKEKQRVAQQKQQQLEQEQFHAFEEMIRNQELEKERLKIVQEFGKVDPGLGGPLVPDLEKPSLDVFPTLTVSSIQPSDCHTTVRPAKPPVVDRSLKPGALSNSESIPTIDGLRHVVVPGRLCPQFLQLASANTARGVETCGILCGKLMRNEFTITHVLIPKQSAGSDYCNTENEEELFLIQDQQGLITLGWIHTHPTQTAFLSSVDLHTHCSYQMMLPESVAIVCSPKFQETGFFKLTDHGLEEISSCRQKGFHPHSKDPPLFCSCSHVTVVDRAVTITDLR
**Q.** B4 was tested. Which Signal to Background, luminescence, DUB 10 nM [1] did it give?
**A.** 1.4 S/B

B5: UCHL5 (protein)
chain: MTGNAGEWCLMESDPGVFTELIKGFGCRGAQVEEIWSLEPENFEKLKPVHGLIFLFKWQPGEEPAGSVVQDSRLDTIFFAKQVINNACATQAIVSVLLNCTHQDVHLGETLSEFKEFSQSFDAAMKGLALSNSDVIRQVHNSFARQQMFEFDTKTSAKEEDAFHFVSYVPVNGRLYELDGLREGPIDLGACNQDDWISAVRPVIEKRIQKYSEGEIRFNLMAIVSDRKMIYEQKIAELQRQLAEEEPMDTDQGNSMLSAIQSEVAKNQMLIEEEVQKLKRYKIENIRRKHNYLPFIMELLKTLAEHQQLIPLVEKAKEKQNAKKAQETK
**Q.** With B5 as the protein, how does the Signal to Background, luminescence, DUB 10 nM [1] read?
**A.** 1.4 S/B

B6: Ataxin3-like (protein)
chain: MDFIFHEKQEGFLCAQHCLNNLLQGEYFSPVELASIAHQLDEEERMRMAEGGVTSEEYLAFLQQPSENMDDTGFFSIQVISNALKFWGLEIIHFNNPEYQKLGIDPINERSFICNYKQHWFTIRKFGKHWFNLNSLLAGPELISDTCLANFLARLQQQAYSVFVVKGDLPDCEADQLLQIISVEEMDTPKLNGKKLVKQKEHRVYKTVLEKVSEESDESGTSDQDEEDFQRALELSRQETNREDEHLRSTIELSMQGSSGNTSQDLPKTSCVTPASEQPKKIKEDYFEKHQQEQKQQQQQSDLPGHSSYLHERPTTSSRAIESDLSDDISEGTVQAAVDTILEIMRKNLKIKGEK
**Q.** What does the source list for B6?
**A.** Signal to Background, luminescence, DUB 10 nM (Ub(1-76)-aminoluciferin): 120 S/B; Signal to Background, luminescence, DUB 10 nM [1]: 1.5 S/B; Signal to Background, fluorescence, DUB 10 nM [2]: 1.1 S/B; Signal to Background, fluorescence, DUB 10 nM [3]: 1.6 S/B

B7: USP34 (protein)
chain: VGLTNLGATCYLASTIQQLYMIPEARQAVFTAKYSEDMKHKTTLLELQKMFTYLMESECKAYNPRPFCKTYTMDKQPLNTGEQKDMTEFFTDLITKIEEMSPELKNTVKSLFGGVITNNVVSLDCEHVSQTAEEFYTVRCQVADMKNIYESLDEVTIKDTLEGDNMYTCSHCGKKVRAEKRACFKKLPRILSFNTMRYTFNMVTMMKEKVNTHFSFPLRLDMTPYTEDFLMGKSERKEGFKEVSDHSKDSESYEYDLIGVTVHTGTADGGHYYSFIRDIVNPHAYKNNKWYLFNDAEVKPFDSAQLASECFGGEMTTKTYDSVTDKFMDFSFEKTHSAYMLFYKRM
**Q.** Which “luminescence signal (S/B), enzyme 200 pM” value [4] does the source give for B7 here?
**A.** hSUMO2-amino-luciferin yielded virtually no signal with the DUBs USP34, USP7, and USP8 at concentrations equal to 200 pM

B8: SENP1 (protein)
chain: EFPEITEEMEKEIKNVFRNGNQDEVLSEAFRLTITRKDIQTLNHLNWLNDEIINFYMNMLMERSKEKGLPSVHAFNTFFFTKLKTAGYQAVKRWTKKVDVFSVDILLVPIHLGVHWCLAVVDFRKKNITYYDSMGGINNEACRILLQYLKQESIDKKRKEFDTNGWQLFSKKSQEIPQQMNGSDCGMFACKYADCITKDRPINFTQQHMPYFRKRMVWEILHRKLL
**Q.** How did the “luminescence signal (S/B), enzyme 200 pM” value [4] turn out when B8 was run?
**A.** SENP1, SENP2, and SENP6 (200 pM) on the other hand gave strong signals with hSUMO2-amino-luciferin

B9: SENP6 (protein)
chain: EEETGENHTIFIGPVEKLIVYPPPPAKGGISVTNEDLHCLNEGEFLNDVIIDFYLKYLVLEKLKKEDADRIHIFSSFFYKRLNQRERRNHETTNLSIQQKRHGRVKTWTRHVDIFEKDFIFVPLNEAAHWFLAVVCFPGLEKPKYEPNPHYHENAVIQKCSTVEDSCISSSASEMESCSQNSSAKPVIKKMLNKKHCIAVIDSNPGQEESDPRYKRNICSVKYSVKKINHTASENEEFNKGESTSQKVADRTKSENGLQNESLSSTHHTDGLSKIRLNYSDESPEAGKMLEDELVDFSEDQDNQDDSSDDGFLADDNCSSEIGQWHLKPTICKQPCILLMDSLRGPSRSNVVKILREYLEVEWEVKKGSKRSFSKDVMKGSNPKVPQQNNFSDCGVYVLQYVESFFENPILSFELPMNLANWFPPPRMRTKREEIRNIILKLQEDQSKEKRKHKDTYSTEAPLGEGTEQYVNSISD
**Q.** With B9 as the protein, how does the “luminescence signal (S/B), enzyme 200 pM” value [1] read?
**A.** Z-Arg-Leu-Arg-Gly-Gly (SEQ ID NO: 1)-amino-luciferin also gave signals with SENP2 and SENP6 (200 pM)

**Q.** What about the “luminescence signal (S/B), enzyme 200 pM” value [4] of the same protein?
**A.** SENP1, SENP2, and SENP6 (200 pM) on the other hand gave strong signals with hSUMO2-amino-luciferin

B10: UCHL3 (ubiquitin carboxyl-terminal hydrolase isozyme L3) (protein)
chain: MEGQRWLPLEANPEVTNQFLKQLGLHPNWQFVDVYGMDPELLSMVPRPVCAVLLLFPITEKYEVFRTEEEEKIKSQGQDVTSSVYFMKQTISNACGTIGLIHAIANNKDKMHFESGSTLKKFLEESVSMSPEERARYLENYDAIRVTHETSAHEGQTEAPSIDEKVDLHFIALVHVDGHLYELDGRKPFPINHGETSDETLLEDAIEVCKKFMERDPDELRFNAIALSAA
**Q.** Which results are given for B10?
**A.** S/B against the S/B for Ub-AMC, UCHL3 0.01 nM (Ub(1-76)-aminoluciferin): ~50-fold greater than the S/B for Ub-AMC; S/B against the S/B for Ub-rhodamine110, UCHL3 0.01 nM (Ub(1-76)-aminoluciferin): ~200-fold greater than the S/B for Ub-rhodamine110; signal to background (S/B) ratio, bioluminescence, 100 nM substrate, 32 pM UCHL3 (Ub(1-76)-aminoluciferin): the same S/B ratio of 1000 was obtained with 100 nM Ub-amino-luciferin and UCHL3 at a concentration of 32 pM; signal to background (S/B) ratio, bioluminescence, 20 uM substrate, 40 nM UCHL3 [1]: a signal to background (S/B) ratio of ~1000 was obtained

B11: USP8 (protein)
chain: MPAVASVPKELYLSSSLKDLNKKTEVKPEKISTKSYVHSALKIFKTAEECRLDRDEERAYVLYMKYVTVYNLIKKRPDFKQQQDYFHSILGPGNIKKAVEEAERLSESLKLRYEEAEVRKKLEEKDRQEEAQRLQQKRQETGREDGGTLAKGSLENVLDSKDKTQKSNGEKNEKCETKEKGAITAKELYTMMTDKNISLIIMDARRMQDYQDSCILHSLSVPEEAISPGVTASWIEAHLPDDSKDTWKKRGNVEYVVLLDWFSSAKDLQIGTTLRSLKDALFKWESKTVLRNEPLVLEGGYENWLLCYPQYTTNAKVTPPPRRQNEEVSISLDFTYPSLEESIPSKPAAQTPPASIEVDENIELISGQNERMGPLNISTPVEPVAASKSDVSPIIQPVPSIKNVPQIDRTKKPAVKLPEEHRIKSESTNHEQQSPQSGKVIPDRSTKPVVFSPTLMLTDEEKARIHAETALLMEKNKQEKELRERQQEEQKEKLRKEEQEQKAKKKQEAEENEITEKQQKAKEEMEKKESEQAKKEDKETSAKRGKEITGVKRQSKSEHETSDAKKSVEDRGKRCPTPEIQKKSTGDVPHTSVTGDSGSGKPFKIKGQPESGILRTGTFREDTDDTERNKAQREPLTRARSEEMGRIVPGLPSGWAKFLDPITGTFRYYHSPTNTVHMYPPEMAPSSAPPSTPPTHKAKPQIPAERDREPSKLKRSYSSPDITQAIQEEEKRKPTVTPTVNRENKPTCYPKAEISRLSASQIRNLNPVFGGSGPALTGLRNLGNTCYMNSILQCLCNAPHLADYFNRNCYQDDINRSNLLGHKGEVAEEFGIIMKALWTGQYRYISPKDFKITIGKINDQFAGYSQQDSQELLLFLMDGLHEDLNKADNRKRYKEENNDHLDDFKAAEHAWQKHKQLNESIIVALFQGQFKSTVQCLTCHKKSRTFEAFMYLSLPLASTSKCTLQDCLRLFSKEEKLTDNNRFYCSHCRARRDSLKKIEIWKLPPVLLVHLKRFSYDGRWKQKLQTSVDFPLENLDLSQYVIGPKNNLKKYNLFSVSNHYGGLDGGHYTAYCKNAARQRWFKFDDHEVSDISVSSVKSSAAYILFYTSLGPRVTDVAT
**Q.** Which “S/B against the S/B for both Ub-AMC and Ub-Rhodamine110, enzyme 0.5 nM” value (Ub(1-76)-aminoluciferin) does the source give for B11 here?
**A.** increased by ~100-fold relative to the S/B for both Ub-AMC and Ub-Rhodamine110

**Q.** And the “luminescence signal (S/B), enzyme 200 pM” value [4]?
**A.** hSUMO2-amino-luciferin yielded virtually no signal with the DUBs USP34, USP7, and USP8 at concentrations equal to 200 pM

B12: Otubain2 (Otub2) (protein)
chain: MSETSFNLISEKCDILSILRDHPENRIYRRKIEELSKRFTAIRKTKGDGNCFYRALGYSYLESLLGKSREIFKFKERVLQTPNDLLAAGFEEHKFRNFFNAFYSVVELVEKDGSVSSLLKVFNDQSASDHIVQFLRLLTSAFIRNRADFFRHFIDEEMDIKDFCTHEVEPMATECDHIQITALSQALSIALQVEYVDEMDTALNHHVFPEAATPSVYLLYKTSHYNILYAADKH
**Q.** With B12 as the protein, how does the Signal to Background, luminescence, DUB 10 nM (Ub(1-76)-aminoluciferin) read?
**A.** 980 S/B

**Q.** And the Signal to Background, luminescence, DUB 10 nM [1]?
**A.** 1.3 S/B

**Q.** What about the Signal to Background, fluorescence, DUB 10 nM [2] of the same protein?
**A.** 1.2 S/B

**Q.** And the Signal to Background, fluorescence, DUB 10 nM [3]?
**A.** 1.7 S/B
